Experimental data taken from article PMC11804915, “Single-stranded DNA binding to the transcription factor PafBC triggers the mycobacterial DNA damage response”.

Experiments:
Conditions in all cases: protein: recombinant; tags: C-terminal Strep on PafC; copies: 1;1; label: FAM; single strand
PafBC, PafB R181A = target: T1, PafBC, PafB R181A (Mycobacterium smegmatis, UniProt A4ZHT0;A0QZ41 1-331;1-318, R181A); experiment: EMSA; up to 16 uM; ssDNA EMSA: 22.5 mM Hepes-KOH pH 7.8, 135 mM NaCl, 20 mM KCl, 5 mM MgCl2, 1 mM DTT, 37 C 15 min, 10 nM DNA, 0-16 uM PafBC; RNAP EMSA: 20 mM Hepes-NaOH pH 8, 100 mM K-acetate, 36 mM NaCl, 10 mM MgCl2, 2 mM DTT, 37 C 30 min
T1 sequence 1: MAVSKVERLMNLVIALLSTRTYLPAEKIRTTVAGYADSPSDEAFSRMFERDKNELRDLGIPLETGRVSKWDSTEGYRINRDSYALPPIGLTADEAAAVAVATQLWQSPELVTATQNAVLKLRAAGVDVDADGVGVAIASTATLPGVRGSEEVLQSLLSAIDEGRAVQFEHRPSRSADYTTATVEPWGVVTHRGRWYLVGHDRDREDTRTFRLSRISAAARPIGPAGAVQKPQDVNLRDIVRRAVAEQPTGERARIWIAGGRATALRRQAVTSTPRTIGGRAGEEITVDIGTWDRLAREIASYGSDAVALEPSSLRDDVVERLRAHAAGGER
T1 sequence 2: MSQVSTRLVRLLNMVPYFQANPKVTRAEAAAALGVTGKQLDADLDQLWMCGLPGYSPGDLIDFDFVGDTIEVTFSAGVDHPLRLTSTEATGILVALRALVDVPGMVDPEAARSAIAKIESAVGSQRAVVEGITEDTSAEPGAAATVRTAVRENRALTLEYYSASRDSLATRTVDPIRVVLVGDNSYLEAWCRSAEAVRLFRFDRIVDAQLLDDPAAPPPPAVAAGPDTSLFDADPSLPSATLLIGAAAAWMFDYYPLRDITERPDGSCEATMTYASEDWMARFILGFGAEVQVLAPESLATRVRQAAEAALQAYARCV

[1] = target: T2, PafBC, PafB R181A/R204A/R208A (Mycobacterium smegmatis, UniProt A4ZHT0;A0QZ41 1-331;1-318, R204A;R208A;PafB:R181A); experiment: as above
T2 sequence 1: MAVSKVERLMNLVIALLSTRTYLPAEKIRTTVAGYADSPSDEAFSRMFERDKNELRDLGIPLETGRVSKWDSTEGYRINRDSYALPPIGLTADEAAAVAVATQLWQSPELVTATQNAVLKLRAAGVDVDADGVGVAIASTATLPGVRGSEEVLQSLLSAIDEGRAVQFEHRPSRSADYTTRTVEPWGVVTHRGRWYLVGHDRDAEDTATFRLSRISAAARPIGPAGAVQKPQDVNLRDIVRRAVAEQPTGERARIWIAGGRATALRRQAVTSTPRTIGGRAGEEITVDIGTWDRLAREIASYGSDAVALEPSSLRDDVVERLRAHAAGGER
T2 sequence 2: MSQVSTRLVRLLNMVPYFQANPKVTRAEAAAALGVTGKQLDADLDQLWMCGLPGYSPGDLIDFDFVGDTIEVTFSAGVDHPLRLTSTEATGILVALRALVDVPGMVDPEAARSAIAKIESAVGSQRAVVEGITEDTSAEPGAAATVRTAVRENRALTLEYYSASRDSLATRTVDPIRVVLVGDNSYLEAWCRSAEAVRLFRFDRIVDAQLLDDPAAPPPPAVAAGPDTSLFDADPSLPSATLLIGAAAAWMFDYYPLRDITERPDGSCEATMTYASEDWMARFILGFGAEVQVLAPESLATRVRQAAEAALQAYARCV

PafBC WT = target: T3, PafBC WT (Mycobacterium smegmatis, UniProt A4ZHT0;A0QZ41 1-331;1-318); experiment: EMSA; low micromolar affinity; ssDNA EMSA: 22.5 mM Hepes-KOH pH 7.8, 135 mM NaCl, 20 mM KCl, 5 mM MgCl2, 1 mM DTT, 37 C 15 min, 10 nM DNA, 0-16 uM PafBC; RNAP EMSA: 20 mM Hepes-NaOH pH 8, 100 mM K-acetate, 36 mM NaCl, 10 mM MgCl2, 2 mM DTT, 37 C 30 min
T3 sequence 1: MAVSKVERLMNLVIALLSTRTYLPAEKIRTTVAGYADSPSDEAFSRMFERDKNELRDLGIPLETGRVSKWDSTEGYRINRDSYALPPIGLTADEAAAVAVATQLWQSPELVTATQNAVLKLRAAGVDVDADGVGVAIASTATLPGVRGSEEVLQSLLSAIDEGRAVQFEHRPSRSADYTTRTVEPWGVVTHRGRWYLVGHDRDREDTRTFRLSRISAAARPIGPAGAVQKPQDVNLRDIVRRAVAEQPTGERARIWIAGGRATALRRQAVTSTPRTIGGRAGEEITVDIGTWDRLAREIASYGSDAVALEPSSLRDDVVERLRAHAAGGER
T3 sequence 2: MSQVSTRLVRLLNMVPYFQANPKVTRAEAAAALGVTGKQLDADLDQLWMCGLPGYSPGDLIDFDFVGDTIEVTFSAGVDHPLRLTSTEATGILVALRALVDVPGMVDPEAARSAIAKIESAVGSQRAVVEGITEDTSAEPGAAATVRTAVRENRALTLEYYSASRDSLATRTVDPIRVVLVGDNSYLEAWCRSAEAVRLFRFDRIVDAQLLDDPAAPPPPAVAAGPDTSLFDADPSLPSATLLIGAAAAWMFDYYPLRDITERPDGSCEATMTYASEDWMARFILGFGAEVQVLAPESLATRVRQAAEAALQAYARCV

**Q.** Does TTTTTTTTTTTTTTTTTTTT (ssDNA) [dT20 ssDNA] bind (PafBC, PafB R181A)?
**A.** no binding

**Q.** Does TTTTTTTTTTTTTTTTTTTT (ssDNA) [dT20 ssDNA] bind [1]?
**A.** no binding

**Q.** Does TTTTTTTTTTTTTTTTTTTT (ssDNA) [dT20 ssDNA] bind (PafBC WT)?
**A.** binds
